Reference: patent US20230049152A1 (Genentech, published 2023)
Residue numbers refer to the chain shown, from its start.

B1: Afuc.hu.Ab4.H12L3 (antibody, human IgG1, kappa)
heavy: not shown
light: DYQMTQSPSSLSASVGDRVTITCQASQSISSYLSWYQQKPGKAPKLLIYKASTLASGVPSRFSGSGSGTDFTLTISSLQPEDFATYYCQQGYTSSNIDNIFGGGTKVEIKRTVAAPSVFIFPPSDEQLKSGTASVVCLLNNFYPREAKVQWKVDNALQSGNSQESVTEQDSKDSTYSLSSTLTLSKADYEKHKVYACEVTHQGLSSPVTKSFNRGEC
modifications: afucosylated Fc N-glycan at position Asn299; between about 80% to about 95% afucosylation
notes: also called Afuc.Ab4.H12L3; afucosylated hu.Ab4.H12L3
B2: hu.Ab4.H10L1 (antibody, human IgG1, kappa)
heavy: not shown
light: B1 light with A43R
B3: hu.Ab4.H1L3 (antibody, human IgG1, kappa)
heavy: not shown
light: B1 light
B4: hu.Ab4.H1L2 (antibody, human IgG1, kappa)
heavy: not shown
light: B1 light with Y2I, A43R
B5: hu.Ab4.H9L1 (antibody, human IgG1, kappa, V domains shown)
VH: EQQLLESGGGLVQPGGSLRLSCAVSGFSLSNYAMIWVRQAPGKGLEWVGTISLGGYTYYANWAKGRFTISKDSSKTTVYLQMNSLRAEDTAVYYCARARWSTDSAIYTYAFDPWGPGTLVTVSS
VL: DYQMTQSPSSLSASVGDRVTITCQASQSISSYLSWYQQKPGKRPKLLIYKASTLASGVPSRFSGSGSGTDFTLTISSLQPEDFATYYCQQGYTSSNIDNIFGGGTKVEIKR
B6: hu.Ab4.H1L4 (antibody, human IgG1, kappa)
heavy: not shown
light: B1 light with Y2I
B7: hu.Ab4.H11L1 (antibody, human IgG1, kappa, V domains shown)
VH: B5 VH with Q2V, V24A, G49S, K71R, S73N, T76N, V78L, P116Q
VL: B5 VL
B8: hu.Ab5.H1L2 (antibody, human IgG1, kappa)
heavy: not shown
light: DIQMTQSPSSLSASVGDRVTITCQASENIANALAWYQQKPGKPPKFLIYGASNLASGVPSRFSGSGSGTDFTFTISSLQPEDIATYYCQQAYYGNSFVEGTFGGGTKVEIKRTVAAPSVFIFPPSDEQLKSGTASVVCLLNNFYPREAKVQWKVDNALQSGNSQESVTEQDSKDSTYSLSSTLTLSKADYEKHKVYACEVTHQGLSSPVTKSFNRGEC
B9: hu.Ab5.H1L4 (antibody, human IgG1, kappa, V domains shown)
VH: EQQLLESGGGLVQPGGSLRLSCAVSGIDLSTYAMGWVRQAPGKGLEWIGLIHRSGRTYYATWAKGRFTISKDSSKTTVYLQMNSLRAEDTAVYFCTRSYPDYSATASIWGPGTTVTVSS
VL: DIQVTQSPSSLSASVGDRVTITCQASENIANALAWYQQKPGKPPKLLIYGASNLASGVPSRFSGSGSGTDFTFTISSLQPEDIATYYCQQAYYGNSFVEGTFGGGTKVEIKR
B10: hu.Ab5.H1L3 (antibody, human IgG1, kappa, V domains shown)
VH: B9 VH
VL: B9 VL with P43A, L46F
B11: hu.Ab5.H1L5 (antibody, human IgG1, kappa, V domains shown)
VH: B9 VH
VL: B9 VL with V4M, P43A
B12: rb.Ab5 (antibody, V domains shown)
VH: QSVEESGGRLVSPGTPLTLTCTVSGIDLSTYAMGWVRQAPGKGLEWIGLIHRSGRTYYATWAKGRFTISKTSSTTVDLKITSPTTEDTATYFCTRSYPDYSATASIWGPGTLVTVSS
VL: DIVVTQTPASVEAAVGGTVTIKCQASENIANALAWYQQKSGQPPMFLIYGASNLASGVSSRFKGSGSGTEFTLTISDLECADAAVYYCQCAYYGNSFVEGTFGGGTEVVVK
notes: Rabbit variable regions; also called parental rabbit antibody Ab5
B13: rb.Ab4 (antibody, V domains shown)
VH: QSVEESGGRLVTPGTPLTLTCTVSGFSLSNYAMIWVRQAPGEGLEWVGTISLGGYTYYANWAKGRFTISKTSTTVDLKISSPTTEDTATYFCARARWSTDSAIYTYAFDPWGPGTLVTVSS
VL: AYDMTQTPASVEVAVGGTVTIKCQASQSISSYLSWYQQKPGQRPELLIYKASTLASGVSSRFKGSGSGTQFTLTISDLECADAATYYCQQGYTSSNIDNIFGGGTEVVVK
notes: Rabbit variable regions; also called parental rabbit antibody Ab4

Experiments:
GST-FcgR3a.F158 [1] = target: T1, GST-FcgR3a.F158 (UniProt P08637 17-208, limits assumed); assay: ELISA, GST-FcgR3a captured by anti-GST antibody
T1 construct: Captured by anti-GST antibody on ELISA plate; also called FcgR3a.F158 protein; Fcgamma RIIIa F158; not shown: GST tag
Protocol: (§1) The binding of fucosylated and afucosylated variants of hu.Ab5.H13L1 and hu.Ab4.H12L3 to both FcgR3a proteins by ELISA was studied. Briefly, an anti-GST antibody was coated on Nunc Maxisorp plates. GST-FcgR3a.V158 and GST-FcgR3a.F158 were captured at 500 ng/mL. Plates were then washed and then serially diluted anti-CCR8 antibodies starting at 100 ug/mL were incubated on the plate for 1 hour at room temperature. Plates were washed and bound antibody was detected by a HRP-conjugated anti-human IgG secondary antibody. Absorbance at 450 nm was measured by a plate reader. The data were fitted using a 4-parameter logistic curve in Softmax Pro.

GST-FcgR3a.V158 [2] = target: T2, GST-FcgR3a.V158 (UniProt P08637 17-208, limits assumed); assay: ELISA, GST-FcgR3a captured by anti-GST antibody
T2 construct: Captured by anti-GST antibody on ELISA plate; also called FcgR3a.V158 protein; Fcgamma RIIIa V158; not shown: GST tag
Protocol: as §1

GST-FcgR3a.F158 [3] = target: T1, GST-FcgR3a.F158; assay: ELISA, GST-FcgR3a.F158 captured by anti-GST antibody
Protocol: as §1

human CCR8 [4] = target: T3, human CCR8 (human, UniProt P51685 1-355); assay: cell-based or functional assay
cyno CCR8 = target: T4, cyno CCR8 (cynomolgus monkey, UniProt O97665 1-356 (rhesus entry)); assay: whole-blood flow cytometry of cyno blood spiked ex vivo with a saturating concentration of the antibody, detected with labeled goat anti-human IgG on FoxP3+ T-reg cells; relative percentage of CCR8+ T-reg cells
T4 construct: also called cynomolgus monkey CCR8
Protocol: Blood was collected from each of the animals before dosing (“Pre-study”), as well as on Day 1 at 0 hours (“Pre-dose”). Each of the animals were then administered a single dose of 10 mg/kg afucosylated anti-gD (Control Group), Afuc.hu.Ab5.H13L1 (Group 2) or Afuc.hu.Ab4.H12L3 (Group 3) via intravenous injection. Blood was then collected from the animals and subjected to the following treatment prior to flow cytometry analysis: (i) blood sample not spiked with either test CCR8 mAb (“unspiked”), (ii) blood sample further spiked with a saturating concentration of Afuc.hu.Ab5.H13L1, and (iii) blood sample further spiked with a saturating concentration of Afuc.hu.Ab4.H12L3. Each of the unspiked and spiked samples were subsequently treated with a labeled goat anti-human IgG antibody and analyzed by flow cytometry. […] Furthermore, flow cytometry of spiked blood also had very little effect on the total CCR8+T-reg cell count.
Anti-CCR8 antibodies Afuc.hu.Ab5.H13L1, Afuc.hu.Ab4.H12L3, and the control anti-gD were used for this study.

human CCR8 [5] = target: T3, human CCR8; assay: cell-based or functional assay; remark: listed apart in the source
GST-FcgR3a.V158 [6] = target: T2, GST-FcgR3a.V158; assay: ELISA, GST-FcgR3a.V158 captured by anti-GST antibody
Protocol: as §1

human CCR8 [7] = target: T3, human CCR8; assay: flow cytometry, CHO-huCCR8.Gna15 cells, relative to rb.Ab4
Protocol: (§2) Evaluation of CCR8 binding of the humanized variants with a hIgG1 Fc involved screening by flow cytometry, and comparing the relative EC₅₀ and MFI on human CCR8 CHO cells to the parental rabbit antibodies. Specifically, stable CHO-huCCR8.Gna15 cells were stained with various concentrations (starting from 10 ug/ml or 66.66 nM, 1:4 serial dilution for total 8 concentration points) of Ab4 and Ab5 variants at 4° C. for 30 minutes, then washed twice with FACS buffer (PBS with 0.5% BSA and 0.2 mM EDTA) and followed by staining with AF647-anti-hIgG at 4° C. for 15 min. Cells were washed twice with FACS buffer, and re-suspended in FACS buffer with propidium iodide (0.5 ug/ml) and analyzed with iQue3 (Sartorius).

human CCR8 [8] = target: T3, human CCR8; assay: as above; remark: listed apart in the source
Protocol: as §2

human CCR8 [9] = target: T3, human CCR8; assay: flow cytometry, CHO-huCCR8.Gna15 cells, relative to rb.Ab5
Protocol: as §2

human CCR8 [10] = target: T3, human CCR8; assay: as above; remark: listed apart in the source
Protocol: as §2

T2 sequence (P08637 17-208 F176V limits assumed): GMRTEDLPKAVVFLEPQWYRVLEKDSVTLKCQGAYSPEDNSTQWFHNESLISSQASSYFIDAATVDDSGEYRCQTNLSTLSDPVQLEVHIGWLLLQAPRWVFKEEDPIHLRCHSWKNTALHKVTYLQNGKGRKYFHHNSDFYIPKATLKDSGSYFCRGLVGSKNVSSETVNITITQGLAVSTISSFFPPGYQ
T1 sequence (P08637 17-208 limits assumed): as the sequence (P08637 17-208 F176V limits assumed) above, with V160F counted along it
T4 sequence (O97665 other isoform, or with tags, fused parts or gaps): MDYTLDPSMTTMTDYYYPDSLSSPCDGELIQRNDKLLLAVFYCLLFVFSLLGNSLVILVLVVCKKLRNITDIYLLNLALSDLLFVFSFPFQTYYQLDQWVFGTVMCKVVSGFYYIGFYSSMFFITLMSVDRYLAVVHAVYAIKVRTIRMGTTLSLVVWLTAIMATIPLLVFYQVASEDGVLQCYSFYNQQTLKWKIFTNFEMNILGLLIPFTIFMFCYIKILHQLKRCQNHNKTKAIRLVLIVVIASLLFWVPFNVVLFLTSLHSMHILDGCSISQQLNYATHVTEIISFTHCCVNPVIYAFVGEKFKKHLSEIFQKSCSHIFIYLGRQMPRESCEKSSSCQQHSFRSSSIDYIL

Binder | Relative EC50 (human CCR8 [7]) [ratio] | Relative MFI (human CCR8 [7]) [ratio] | Relative EC50 (human CCR8 [8]) [ratio] | Relative MFI (human CCR8 [8]) [ratio] | Relative EC50 (human CCR8 [9]) [ratio] | Relative MFI (human CCR8 [9]) [ratio] | also measured
B1 |  |  |  |  |  |  | fold increase in binding potency versus fucosylated counterpart (GST-FcgR3a.F158 [1]): ~10 fold; fold increase in binding potency versus fucosylated counterpart (GST-FcgR3a.V158 [2]): ~10 fold; EC50 (GST-FcgR3a.F158 [3]): 0.08 µg/mL; ADCC EC50, NK-92 F158 cells (FIG. 11A) (human CCR8 [4]): 6 pM; ADCC EC50, NK-92 F158 cells (FIG. 11C) (human CCR8 [4]): 6 pM; ADCC EC50, NK-92 V158 cells (FIG. 11B) (human CCR8 [4]): 0.011 nM; binding result (cyno CCR8): binds; ADCP EC50, macrophages HR/FF (FIG. 14A) (human CCR8 [5]): 0.025 nM; ADCP EC50, macrophages HR/FF (FIG. 14E) (human CCR8 [5]): 0.035 nM; ADCP EC50, macrophages HR/VF (FIG. 14C) (human CCR8 [5]): 0.017 nM; ADCP EC50, macrophages RR/FF (FIG. 14B) (human CCR8 [5]): 0.12 nM; ADCP EC50, macrophages RR/VF (FIG. 14D) (human CCR8 [5]): 0.079 nM; EC50 (GST-FcgR3a.V158 [6]): 0.033 µg/mL
B2 | 1.07 | 0.77 |  |  |  |  | 
B3 |  |  | 1.23 | 1 |  |  | 
B4 |  |  | 1.06 | 0.73 |  |  | 
B5 | 1.04 | 0.87 |  |  |  |  | 
B6 |  |  | 1.04 | 0.8 |  |  | 
B7 | 0.88 | 0.66 |  |  |  |  | 
B8 |  |  |  |  | 1.4 | 0.79 | 
B9 |  |  |  |  | 1.7 | 0.51 | 
B10 |  |  |  |  | 1.5 | 0.81 | 
B11 |  |  |  |  | 0.3 | 0.31 | 
B12 |  |  |  |  | 1 | 1 | Relative EC50 (human CCR8 [10]): 1 ratio; Relative MFI (human CCR8 [10]): 1 ratio
B13 | 1 | 1 | 1 | 1 |  |  | 
